Measured values taken from article PMC4646777 (Science Advances, 2015).
No end group written: not given here.

T1: H6-tagged OsTPL N-terminal domain (TPD), TPL(1–209) (rice, UniProt Q0J7U6 1-209)
T1 sequence (looked up): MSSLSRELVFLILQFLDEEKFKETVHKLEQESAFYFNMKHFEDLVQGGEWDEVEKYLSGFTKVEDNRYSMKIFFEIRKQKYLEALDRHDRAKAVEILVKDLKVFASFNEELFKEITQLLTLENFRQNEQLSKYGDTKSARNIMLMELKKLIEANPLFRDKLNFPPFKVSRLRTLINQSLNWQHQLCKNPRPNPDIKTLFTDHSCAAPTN

T2: H6-tagged OsTPR1 N-terminal domain (TPD), TPR1(1–209) (rice, UniProt Q10NY2 1-209)
T2 sequence (looked up): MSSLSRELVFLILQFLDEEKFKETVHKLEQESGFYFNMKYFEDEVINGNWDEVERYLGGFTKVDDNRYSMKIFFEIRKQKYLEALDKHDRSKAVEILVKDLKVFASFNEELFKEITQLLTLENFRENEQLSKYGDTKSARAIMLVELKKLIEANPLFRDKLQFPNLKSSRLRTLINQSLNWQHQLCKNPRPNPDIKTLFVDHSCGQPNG

T3: H6-tagged OsTPR2 N-terminal domain (TPD), TPR2(1–210) (rice, UniProt Q5NBT9 1-210)
T3 sequence (looked up): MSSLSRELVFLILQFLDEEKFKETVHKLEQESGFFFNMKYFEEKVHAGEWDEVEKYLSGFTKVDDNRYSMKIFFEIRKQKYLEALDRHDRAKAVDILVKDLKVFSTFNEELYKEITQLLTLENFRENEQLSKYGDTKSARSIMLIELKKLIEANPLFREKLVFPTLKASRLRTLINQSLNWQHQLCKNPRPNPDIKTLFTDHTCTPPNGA

T4: H6-tagged Arabidopsis TPL N-terminal domain, TPL(1–209) (Arabidopsis, UniProt Q94AI7 1-209)
T4 sequence (looked up): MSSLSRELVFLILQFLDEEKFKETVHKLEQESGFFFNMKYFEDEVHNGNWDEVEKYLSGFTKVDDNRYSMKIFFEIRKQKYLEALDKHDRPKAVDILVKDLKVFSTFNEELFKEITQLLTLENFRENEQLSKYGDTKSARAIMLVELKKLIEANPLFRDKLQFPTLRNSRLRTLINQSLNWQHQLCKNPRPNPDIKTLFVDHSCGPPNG

T5: H6-tagged Arabidopsis TPR1 N-terminal domain, TPR1(1–209) (Arabidopsis, UniProt Q0WV90 1-209)
T5 sequence (looked up): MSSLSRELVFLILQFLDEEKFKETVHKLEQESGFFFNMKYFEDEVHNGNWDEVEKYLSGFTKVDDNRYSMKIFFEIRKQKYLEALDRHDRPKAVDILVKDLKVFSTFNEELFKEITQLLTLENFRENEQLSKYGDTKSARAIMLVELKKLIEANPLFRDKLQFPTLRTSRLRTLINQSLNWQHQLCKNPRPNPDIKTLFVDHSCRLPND

T6: H6-tagged Arabidopsis TPR2 N-terminal domain, TPR2(1–209) (Arabidopsis, UniProt Q9LRZ0 1-209)
T6 sequence (looked up): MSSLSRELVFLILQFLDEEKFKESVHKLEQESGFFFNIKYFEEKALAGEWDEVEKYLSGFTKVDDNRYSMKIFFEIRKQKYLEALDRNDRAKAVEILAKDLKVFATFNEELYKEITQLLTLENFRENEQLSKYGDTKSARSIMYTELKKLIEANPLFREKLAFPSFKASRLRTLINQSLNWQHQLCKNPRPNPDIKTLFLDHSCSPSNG

T7: H6-tagged Arabidopsis TPR3 N-terminal domain, TPR3(1–209) (Arabidopsis, UniProt Q84JM4 1-209)
T7 sequence (looked up): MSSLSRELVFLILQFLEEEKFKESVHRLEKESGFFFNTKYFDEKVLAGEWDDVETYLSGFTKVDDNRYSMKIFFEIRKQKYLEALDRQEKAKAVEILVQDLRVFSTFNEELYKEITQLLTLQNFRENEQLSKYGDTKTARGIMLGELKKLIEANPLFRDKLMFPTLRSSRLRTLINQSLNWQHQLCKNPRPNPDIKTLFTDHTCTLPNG

T8: H6-tagged Arabidopsis TPR4 N-terminal domain, TPR4(1–209) (Arabidopsis, UniProt Q27GK7 1-209)
T8 sequence (looked up): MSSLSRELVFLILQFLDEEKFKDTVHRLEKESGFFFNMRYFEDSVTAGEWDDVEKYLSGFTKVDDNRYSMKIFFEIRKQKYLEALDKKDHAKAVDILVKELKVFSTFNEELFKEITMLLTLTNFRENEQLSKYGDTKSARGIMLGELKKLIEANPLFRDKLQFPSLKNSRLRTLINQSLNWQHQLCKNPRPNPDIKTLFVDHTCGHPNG

T9: Gal4 DBD-NINJA full length (Arabidopsis, UniProt Q9SV55 1-425)
T9 sequence (looked up): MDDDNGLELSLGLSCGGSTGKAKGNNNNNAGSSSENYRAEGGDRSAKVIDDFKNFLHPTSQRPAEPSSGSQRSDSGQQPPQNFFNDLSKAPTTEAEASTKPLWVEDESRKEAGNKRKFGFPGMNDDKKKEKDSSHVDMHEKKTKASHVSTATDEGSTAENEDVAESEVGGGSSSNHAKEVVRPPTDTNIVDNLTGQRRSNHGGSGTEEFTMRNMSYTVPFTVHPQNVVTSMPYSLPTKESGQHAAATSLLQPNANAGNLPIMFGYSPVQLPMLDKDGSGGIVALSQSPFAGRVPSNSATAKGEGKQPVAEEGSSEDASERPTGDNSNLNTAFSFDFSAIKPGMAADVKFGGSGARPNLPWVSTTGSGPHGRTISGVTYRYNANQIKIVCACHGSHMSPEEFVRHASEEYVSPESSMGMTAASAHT


Key:
[1] = biological target: T1, H6-tagged OsTPL N-terminal domain …; test: AlphaScreen or HTRF
[2] = biological target: T2, H6-tagged OsTPR1 N-terminal domain …; test: AlphaScreen or HTRF
[3] = biological target: T3, H6-tagged OsTPR2 N-terminal domain …; test: AlphaScreen or HTRF
[4] = biological target: T4, H6-tagged Arabidopsis TPL N-terminal …; test: AlphaScreen or HTRF
[5] = biological target: T5, H6-tagged Arabidopsis TPR1 N-terminal …; test: AlphaScreen or HTRF
[6] = biological target: T6, H6-tagged Arabidopsis TPR2 N-terminal …; test: AlphaScreen or HTRF
[7] = biological target: T7, H6-tagged Arabidopsis TPR3 N-terminal …; test: AlphaScreen or HTRF
[8] = biological target: T8, H6-tagged Arabidopsis TPR4 N-terminal …; test: AlphaScreen or HTRF
[9] = biological target: T9, Gal4 DBD-NINJA full length; test: two-hybrid

Row | Binder | binding result [1] | binding result [2] | binding result [3] | binding result [4] | binding result [5] | binding result [6] | binding result [7] | binding result [8] | luciferase reporter activation above background [9] [fold]
1 | DNGLELSLGLSC (also: biotinylated, end not given here) [biotinylated NINJA EAR motif peptide (12 amino acids, wild type)] | binds | binds | binds | binds | binds | binds | binds | binds | –
2 | VP16-OsTPR2 full length (natural protein, rice, UniProt Q5NBT9 1-1129, looked up) MSSLSRELVFLILQFLDEEKFKETVHKLEQESGFFFNMKYFEEKVHAGEWDEVEKYLSGFTKVDDNRYSMKIFFEIRKQKYLEALDRHDRAKAVDILVKDLKVFSTFNEELYKEITQLLTLENFRENEQLSKYGDTKSARSIMLIELKKLIEANPLFREKLVFPTLKASRLRTLINQSLNWQHQLCKNPRPNPDIKTLFTDHTCTPPNGARASPVSVPLAAVPKAGGTYPPLTAHTPFQPPPAGPSLAGWMANAAAATSSVPSAVVAASSLPVPPNQAVPIMKRPTITDYQSAESEQLMKRLRPSGHGVDEATYPAPIPQPLWSVEDLPRTVACTLSQGSSVTSMDFHPTRHTLLLVGSTNGEITLWEVGMRERLFSKPFKIWDIQACSPQFQSVAKESSISINRVTWSPDGDLIGVAFAKHLIHLHAYQQPNETRQVLEIDAHSGAVNDIAFSRPNKQLCVVTCGDDRLIKVWDMHGQKLFSFEGHEAPVYSICPHHKESIQFIFSTSLDGKIKAWLYDHMGSRVDYDAPGKWCTTMLYSADGTRLFSCGTSKDGDSYLVEWNESEGSIKRTYSGFRKKSAGVGVVQFDTAQNHILAAGEDNQIKFWDVDNTTMLSSTEADGGLPGLPRLRFNKEGNLLAVTTVDNGFKILANADGLRTLRAFGNRPFEAFRSQYEASSMKVSGAPVVAGISPNIGRMDHIDRNSPAKPSPIMNGGDPASRSIDIKPRISEERPDKAKPWELMEVLNAQQCRVATMPETPDQASKVVRLLYTNSGVGLLALGSNAIQRLWKWARNDQNPSGKATANVVPQHWQPNSGLVMQNDTADTNPEDAVPCIALSKNDSYVMSACGGKVSLFNMMTFKVMTTFMPPPPASTFLAFHPQDNNIIAIGMEDSTIHIYNVRVDEVKTRLKGHQRRITGLAFSNNLQILVSSGADAQLCVWATDTWEKKKSVAIQMPAGKTPSGDTWVQFNSDWSRLLVVHETQLAIYDASKMERIYQWIPQDALSAPISHASYSRNSQLVFAAFTDGNIGIFDVENLRLRCRIAPPAYLSSAAINSNPSVYPLVVAAHPQESNQFAVGLSDGSVKVIEPLESEGKWGTTPPTENGVPNGRTSTSSATSNPAADQIQR | – | – | – | – | – | – | – | – | ~2
